# B1: Azoarcus group I ribozyme (parent)
# chain: GUGCCUUGCGCCGGGAAACCACGCAAGGGAUGGUGUCAAAUUCGGCGAAACCUAAGCGCCCGCCCGGGCGUAUGGCAACGCCGAGCCAAGCUUCGGCGCCUGCGCCGAUGAAGGUGUAGAGACUAGACGGCACCCACCUAAGGCAAACGCUAUGGUGAAGGCAUAGUCCAGGGAGUGGCGAAAGUCACACAAACCGG
# Variants of: B1
# Assay: reverse-splicing fitness (ratio to wild type); higher = more active; in vitro selection; Mg2+ level not given
# Procedure, shortened: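 An in vitro group I ribozyme library with randomized positions was T7-transcribed and gel-purified. In triplicate, 10 pmol RNA in EPPS pH 7.5 was reacted with 50 pmoles of a 30-nt RNA substrate for 1 h at 37 °C across several added MgCl2 levels (1–48 mM), then stopped with EDTA. Products were reverse transcribed from a substrate-complementary primer, PCR-amplified and sequenced (HiSeq 4000). Fitness is a variant's read proportion after selection over that before, normalised to wild type.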
row,Variant,reverse-splicing fitness
1,C82G A111U A120U A145U C150U C169G U176G,0.00218
2,C82G A111U A120U A145U C150U C169U,0.00381
3,C82G A111U A120U A145U C150U C169U U176A,0.00325
4,C82G A111U A120U A145U C150U C169U U176C,0.00369
5,C82G A111U A120U A145U C150U C169U U176G,0.0023
6,C82G A111U A120U A145U C150U U176A,0.00894
7,C82G A111U A120U A145U C150U U176C,0.0131
8,C82G A111U A120U A145U C150U U176G,0.00302
9,C82G A111U A120U A145U C169A,0.00258
10,C82G A111U A120U A145U C169A U176A,0.00292
11,C82G A111U A120U A145U C169A U176C,0.00203
12,C82G A111U A120U A145U C169A U176G,0.00176
13,C82G A111U A120U A145U C169G,0.00331
14,C82G A111U A120U A145U C169G U176A,0.00265
15,C82G A111U A120U A145U C169G U176C,0.0026
16,C82G A111U A120U A145U C169G U176G,0.00186
17,C82G A111U A120U A145U C169U,0.00419
18,C82G A111U A120U A145U C169U U176A,0.00233
19,C82G A111U A120U A145U C169U U176C,0.00275
20,C82G A111U A120U A145U C169U U176G,0.00177
21,C82G A111U A120U A145U U176A,0.0108

row,Variant,reverse-splicing fitness
1,C82G A111U A120U A145U U176C,0.0192
2,C82G A111U A120U A145U U176G,0.00425
3,C82G A111U A120U C150A,0.00965
4,C82G A111U A120U C150A C169A,0.0047
5,C82G A111U A120U C150A C169A U176A,0.00677
6,C82G A111U A120U C150A C169A U176C,0.00429
7,C82G A111U A120U C150A C169A U176G,0.00233
8,C82G A111U A120U C150A C169G,0.00506
9,C82G A111U A120U C150A C169G U176A,0.00827
10,C82G A111U A120U C150A C169G U176C,0.00406
11,C82G A111U A120U C150A C169G U176G,0.00223
12,C82G A111U A120U C150A C169U,0.00448
13,C82G A111U A120U C150A C169U U176A,0.00604
14,C82G A111U A120U C150A C169U U176C,0.00482
15,C82G A111U A120U C150A C169U U176G,0.00236
16,C82G A111U A120U C150A U176A,0.00758
17,C82G A111U A120U C150A U176C,0.00858
18,C82G A111U A120U C150A U176G,0.00383
19,C82G A111U A120U C150G,0.00761
20,C82G A111U A120U C150G C169A,0.00722
21,C82G A111U A120U C150G C169A U176A,0.00533

row,Variant,reverse-splicing fitness
1,C82G A111U A120U C150G C169A U176C,0.00545
2,C82G A111U A120U C150G C169A U176G,0.00291
3,C82G A111U A120U C150G C169G,0.0064
4,C82G A111U A120U C150G C169G U176A,0.00513
5,C82G A111U A120U C150G C169G U176C,0.00362
6,C82G A111U A120U C150G C169G U176G,0.003
7,C82G A111U A120U C150G C169U,0.00549
8,C82G A111U A120U C150G C169U U176A,0.00329
9,C82G A111U A120U C150G C169U U176C,0.00541
10,C82G A111U A120U C150G C169U U176G,0.00257
11,C82G A111U A120U C150G U176A,0.00389
12,C82G A111U A120U C150G U176C,0.00683
13,C82G A111U A120U C150G U176G,0.0026
14,C82G A111U A120U C150U,0.0256
15,C82G A111U A120U C150U C169A,0.0056
16,C82G A111U A120U C150U C169A U176A,0.00512
17,C82G A111U A120U C150U C169A U176C,0.00328
18,C82G A111U A120U C150U C169A U176G,0.00241
19,C82G A111U A120U C150U C169G,0.00565
20,C82G A111U A120U C150U C169G U176A,0.00881
21,C82G A111U A120U C150U C169G U176C,0.00433

row,Variant,reverse-splicing fitness
1,C82G A111U A120U C150U C169G U176G,0.00236
2,C82G A111U A120U C150U C169U,0.00485
3,C82G A111U A120U C150U C169U U176A,0.0052
4,C82G A111U A120U C150U C169U U176C,0.00402
5,C82G A111U A120U C150U C169U U176G,0.00215
6,C82G A111U A120U C150U U176A,0.00931
7,C82G A111U A120U C150U U176C,0.0123
8,C82G A111U A120U C150U U176G,0.00391
9,C82G A111U A120U C169A,0.0043
10,C82G A111U A120U C169A U176A,0.00362
11,C82G A111U A120U C169A U176C,0.00299
12,C82G A111U A120U C169A U176G,0.00169
13,C82G A111U A120U C169G,0.00462
14,C82G A111U A120U C169G U176A,0.00374
15,C82G A111U A120U C169G U176C,0.00385
16,C82G A111U A120U C169G U176G,0.00175
17,C82G A111U A120U C169U,0.00476
18,C82G A111U A120U C169U U176A,0.00485
19,C82G A111U A120U C169U U176C,0.00393
20,C82G A111U A120U C169U U176G,0.00182
